Data set [1] concerns HeLa Kyoto. As to the kind of experiment: thermal stability score vs G1/S (z-score of summed log2 fold changes over temperatures); higher = more thermally stable than in G1/S.
The subject of data set [2] is HeLa Kyoto. In words: solubility change mitosis vs G1/S (difference of NP-40 vs SDS log2 ratios) (log2 ratio difference); higher = more soluble in mitosis.
Data set [3] has as its system HeLa Kyoto. As to the kind of experiment: melting temperature (median over replicates), in situ; higher = more thermally stable.
Data set [4] deals with HeLa Kyoto. As to the kind of experiment: solubility in G1/S (NP-40 vs SDS abundance) (log2 ratio); higher = more soluble. Particulars: cell cycle stage: G1/S.
Setting [5] is: cell cycle stage: early G1 (4.5 h after nocodazole release).
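Throughout, for melting temperature (median over replicates), in situ: HeLa Kyoto cells synchronized by double thymidine or nocodazole block, proteins quantified by TMT10plex mass spectrometry, three independent biological replicates.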
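Throughout, for solubility change mitosis vs G1/S (difference of NP-40 vs SDS log2 ratios): synchronized HeLa Kyoto cells (double thymidine block for G1/S, nocodazole release for mitosis), protein amounts in NP-40 versus SDS lysates quantified by mass spectrometry, three biological replicates.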
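Throughout, for solubility in G1/S (NP-40 vs SDS abundance): HeLa Kyoto cells arrested at G1/S by double thymidine block, proteins quantified by TMT10plex mass spectrometry in mild NP-40 versus SDS extracts, three biological replicates.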
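Throughout, for thermal stability score vs G1/S (z-score of summed log2 fold changes over temperatures): synchronized HeLa Kyoto cells, proteins quantified by TMT10plex mass spectrometry, three biological replicates, mitosis taken 0.5 h after nocodazole release, G1/S directly after double thymidine block.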

For the sequence “MLRSVWNFLKRHKKKCIFLGTVLGGVYILGKYGQKKIREIQEREAAEYIAQARRQYHFESNQRTCNMTVLSMLPTLREALMQQLNSESLTALLKNRPSNKLEIWEDLKIISFTRSTVAVYSTCMLVVLLRVQLNIIGGYIYLDNAAVGKNGTTILAPPDVQQQYLSSIQHLLGDGLTELITVIKQAVQKVLGSVSLKHSLSLLDLEQKLKEIRNLVEQHKSSSWINKDGSKPLLCHYMMPDEETPLAVQACGLSPRDITTIKLLNETRDMLESPDFSTVLNTCLNRGFSRLLDNMAEFFRPTEQDLQHGNSMNSLSSVSLPLAKIIPIVNGQIHSVCSETPSHFVQDLLTMEQVKDFAANVYEAFSTPQQLEK [PEX3]”, the thermal stability score in the data set with HeLa Kyoto [1] (setting [5]) is 0.401; in the data set on HeLa Kyoto [1] (cell cycle stage: mitosis), 0.184. In addition, the “solubility change mitosis (log2)” value with HeLa Kyoto [2] is -0.208. Besides, the melting temperature in the data set on HeLa Kyoto [3] (cell cycle stage: G1/S) is 50 °C; in the data set on HeLa Kyoto [3] (cell cycle stage: mitosis), 49 °C. The “solubility in G1/S (log2)” value in the data set with HeLa Kyoto [4] is 0.0923.

In the case of “MKVKMLSRNPDNYVRETKLDLQRVPRNYDPALHPFEVPREYIRALNATKLERVFAKPFLASLDGHRDGVNCLAKHPEKLATVLSGACDGEVRIWNLTQRNCIRTIQAHEGFVRGICTRFCGTSFFTVGDDKTVKQWKMDGPGYGDEEEPLHTILGKTVYTGIDHHWKEAVFATCGQQVDIWDEQRTNPICSMTWGFDSISSVKFNPIETFLLGSCASDRNIVLYDMRQATPLKKVILDMRTNTICWNPMEAFIFTAANEDYNLYTFDMRALDTPVMVHMDHVSAVLDVDYSPTGKEFVSASFDKSIRIFPVDKSRSREVYHTKRMQHVICVKWTSDSKYIMCGSDEMNIRLWKANASEKLGVLTSREKAAKDYNQKLKEKFQHYPHIKRIARHRHLPKSIYSQIQEQRIMKEARRRKEVNRIKHSKPGSVPLVSEKKKHVVAVVK [DCAF13]”, the figures for the thermal stability score with HeLa Kyoto [1] (setting [5]) and in the data set on HeLa Kyoto [1] (cell cycle stage: mitosis) were -1.4 and -1.29, respectively. Moreover, the “solubility change mitosis (log2)” value in the data set with HeLa Kyoto [2] worked out at 0.446. This sequence registered a melting temperature with HeLa Kyoto [3] (cell cycle stage: G1/S) of 54.8 °C. The “solubility in G1/S (log2)” value in the data set on HeLa Kyoto [4] was -2.16.

With “MLVVEVANGRSLVWGAEAVQALRERLGVGGRTVGALPRGPRQNSRLGLPLLLMPEEARLLAEIGAVTLVSAPRPDSRHHSLALTSFKRQQEESFQEQSALAAEARETRRQELLEKITEGQAAKKQKLEQASGASSSQEAGSSQAAKEDETSDGQASGEQEEAGPSSSQAGPSNGVAPLPRSALLVQLATARPRPVKARPLDWRVQSKDWPHAGRPAHELRYSIYRDLWERGFFLSAAGKFGGDFLVYPGDPLRFHAHYIAQCWAPEDTIPLQDLVAAGRLGTSVRKTLLLCSPQPDGKVVYTSLQWASLQ [TSEN34]”, the thermal stability score in the data set with HeLa Kyoto [1] (setting [5]) turned out to be 1.68; with HeLa Kyoto [1] (cell cycle stage: mitosis) it was 2.17. The “solubility change mitosis (log2)” value in the data set on HeLa Kyoto [2] was -0.159. The melting temperature in the data set on HeLa Kyoto [3] (cell cycle stage: G1/S) is 49.3 °C; in the data set on HeLa Kyoto [3] (cell cycle stage: mitosis), 49.8 °C. For the same sequence, the “solubility in G1/S (log2)” value in the data set on HeLa Kyoto [4] came out at 0.191.

On to “MLDSLLALGGLVLLRDSVEWEGRSLLKALVKKSALCGEQVHILGCEVSEEEFREGFDSDINNRLVYHDFFRDPLNWSKTEEAFPGGPLGALRAMCKRTDPVPVTIALDSLSWLLLRLPCTTLCQVLHAVSHQDSCPGDSSSVGKVSVLGLLHEELHGPGPVGALSSLAQTEVTLGGTMGQASAHILCRRPRQRPTDQTQWFSILPDFSLDLQEGPSVESQPYSDPHIPPVDPTTHLTFNLHLSKKEREARDSLILPFQFSSEKQQALLRPRPGQATSHIFYEPDAYDDLDQEDPDDDLDI [ELP5]”, for which the thermal stability score in the data set on HeLa Kyoto [1] (setting [5]) was -2.95; in the data set on HeLa Kyoto [1] (cell cycle stage: mitosis), -4.18. Besides, the “solubility change mitosis (log2)” value with HeLa Kyoto [2] is -0.11. The melting temperature in the data set on HeLa Kyoto [3] (cell cycle stage: G1/S) is 54.9 °C; in the data set on HeLa Kyoto [3] (cell cycle stage: mitosis) it was 53.9 °C. Besides, in the data set on HeLa Kyoto [4], the “solubility in G1/S (log2)” value turned out to be 0.313.

Take “MSTEGGFGGTSSSDAQQSLQSFWPRVMEEIRNLTVKDFRVQELPLARIKKIMKLDEDVKMISAEAPVLFAKAAQIFITELTLRAWIHTEDNKRRTLQRNDIAMAITKFDQFDFLIDIVPRDELKPPKRQEEVRQSVTPAEPVQYYFTLAQQPTAVQVQGQQQGQQTTSSTTTIQPGQIIIAQPQQGQTTPVTMQVGEGQQVQIVQAQPQGQAQQAQSGTGQTMQVMQQIITNTGEIQQIPVQLNAGQLQYIRLAQPVSGTQVVQGQIQTLATNAQQGQRNASQGKPRRCLKETLQITQTEVQQGQQQFSQFTDGQRNSVQQARVSELTGEAEPREVKATGNSTPCTSSLPTTHPPSHRAGASCVCCSQPQQSSTSPPPSDALQWVVVEVSGTPNQLETHRELHAPLPGMTSLSPLHPSQQLYQIQQVTMPAGQDLAQPMFIQSANQPSDGQAPQVTGD [NFYC]”: the thermal stability score with HeLa Kyoto [1] (setting [5]) was -0.186; with HeLa Kyoto [1] (cell cycle stage: mitosis), -0.549. In addition, the “solubility change mitosis (log2)” value in the data set with HeLa Kyoto [2] is -0.174. Also, the results for the melting temperature with HeLa Kyoto [3] (cell cycle stage: G1/S) and with HeLa Kyoto [3] (cell cycle stage: mitosis) were 54.7 °C and 54.3 °C, respectively. Further, the “solubility in G1/S (log2)” value in the data set with HeLa Kyoto [4] was 0.266.

Consider “MPGSAAKGSELSERIESFVETLKRGGGPRSSEEMARETLGLLRQIITDHRWSNAGELMELIRREGRRMTAAQPSETTVGNMVRRVLKIIREEYGRLHGRSDESDQQESLHKLLTSGGLNEDFSFHYAQLQSNIIEAINELLVELEGTMENIAAQALEHIHSNEVIMTIGFSRTVEAFLKEAARKRKFHVIVAECAPFCQGHEMAVNLSKAGIETTVMTDAAIFAVMSRVNKVIIGTKTILANGALRAVTGTHTLALAAKHHSTPLIVCAPMFKLSPQFPNEEDSFHKFVAPEEVLPFTEGDILEKVSVHCPVFDYVPPELITLFISNIGGNAPSYIYRLMSELYHPDDHVL [EIF2B2]”, for which the thermal stability score with HeLa Kyoto [1] (setting [5]) was 1.74; with HeLa Kyoto [1] (cell cycle stage: mitosis), 0.854. Further, the “solubility change mitosis (log2)” value in the data set on HeLa Kyoto [2] is -0.191. The melting temperature with HeLa Kyoto [3] (cell cycle stage: G1/S) was 51.4 °C; in the data set on HeLa Kyoto [3] (cell cycle stage: mitosis) it was 50.5 °C. The “solubility in G1/S (log2)” value with HeLa Kyoto [4] stood at 0.101.

Values taken from the supplement of paper PMC5998384.
